Source: the supplement of paper PMC12764529
± gives the half width of the 95% confidence interval.

Legend:
[1] = folding stability dG unfold (combined trypsin and chymotrypsin); higher = more stable
Procedure, shortened: (§1)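 Designed mini-proteins with no cysteine and under 80 residues were kept only if AlphaFold2 dimer inter-PAE was above 15. In a PA-tagged cDNA display construct, they were digested with trypsin and chymotrypsin and then sequenced. K50 was inferred by Bayesian fitting of counts, and unfolding free energy was derived per protease or combined against a sequence-predicted unfolded-state K50 and a shared folded-state K50.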

[2] = folding stability dG unfold from chymotrypsin proteolysis; higher = more stable
Procedure, shortened: as §1

[3] = folding stability dG unfold from trypsin proteolysis; higher = more stable
Procedure, shortened: as §1

Sequence | folding stability dG unfold [1] | folding stability dG unfold [2] | folding stability dG unfold [3]
SAMKITIEVIKLPDGYYVVRITVYDKNGEKVEERELVFSSLEDLLAALKELFPDQKVTVEIRKVTKEELSAG [r14_964_TrROS_Hall] | 3.77 ± 0.18 kcal/mol | 4.14 ± 0.23 kcal/mol | 2.16 ± 0.16 kcal/mol
SAMKIVEIVEYDKEKKKIRIKIEVNGKLLEIEIEAESEEEVEEALKKLKEELEFELPDGKKVRITEIEISAG [r14_422_TrROS_Hall] | 1.63 ± 0.28 kcal/mol | 2.08 ± 0.14 kcal/mol | 0.749 ± 0.15 kcal/mol
SAMKKLTEEEIEKLAKELAKEGKVEIKIKVEKKVVKNKNGKKKEVTKVKIEIKAPPEAKKKLEKLKKKLSAG [r14_628_TrROS_Hall] | 0.359 ± 0.79 kcal/mol | 0.992 ± 0.19 kcal/mol | 0.415 ± 0.34 kcal/mol
SAMKKPPKTLTLVIVVKVPEEEMTEEQLEELARELAEALAPPGEKVEVKVEVERLPDGTVVVKIEIKLESAG [r14_389_TrROS_Hall] | 2.22 ± 0.17 kcal/mol | 1.98 ± 0.067 kcal/mol | 2.28 ± 0.091 kcal/mol
SAMKLTTLSESSDPATGVRYLTVAIPSSQDDLIKEIAEELEKKGVKATILTPNVPAGSSVTIKLEFKGKSAG [r14_354_JUSTAS] | 0.475 ± 0.17 kcal/mol | 0.66 ± 0.16 kcal/mol | 0.109 ± 0.17 kcal/mol
SAMKLVTLEDGTVIETENLSLEEIKERFGGGSISVSDVPPSPAFRVESEEEREALEKEVGPGFVVVEEGSAG [r14_445_JUSTAS] | 0.414 ± 0.082 kcal/mol | 0.108 ± 0.11 kcal/mol | 0.578 ± 0.032 kcal/mol
SAMKVTIEPLEDGSTVITLDDGTEITFSAPGSGAPILAKVTPLPNTGVVRVDIYHPEGGKLLAPLVVPLSAG [r14_975_TrMRF] | 0.734 ± 0.053 kcal/mol | 0.579 ± 0.094 kcal/mol | 0.657 ± 0.034 kcal/mol
SAMKYLVEVTADLGGPSVRYELDAESIEEAIEKVKEKLKPLFPDAPLKNITLTFHDPSSDETTTVNIVESAG [r14_54_JUSTAS] | 3.49 ± 0.062 kcal/mol | 3.54 ± 0.031 kcal/mol | 3.36 ± 0.067 kcal/mol
SAMKYTITVKGDIESVRNFLLDKLDFDIEVSSTPDGTTVITITMDEEKVSELKELLKAHPNFPTTVNKESAG [r14_521_JUSTAS] | 3.83 ± 0.11 kcal/mol | 4.12 ± 0.044 kcal/mol | 2.75 ± 0.086 kcal/mol
SAMLPEGERKPFLVKVKIETPEGTPEFEAPVITEPPQKIHVSIDFDIPEGEHKIKIEFFGPKLEFEFDISAG [r14_280_TrMRF] | 2.29 ± 0.44 kcal/mol | 2.42 ± 0.12 kcal/mol | 1.87 ± 0.11 kcal/mol
SAMMTPEERAFVERLRALFAERGGRIEIRFFEEPDRIEILVEEDDPELIREIREELARIPFPISRIVEESAG [r14_284_TrMRF] | 3.33 ± 0.04 kcal/mol | 3.695 ± 0.012 kcal/mol | 2.434 ± 0.016 kcal/mol
SAMMVVYYDPETGELVLVDPSEIPPELVEKGIEPVRLVPLRILVEVESEEEAEELARLFPDLVEVSLNPSAG [r14_638_TrMRF] | 1.88 ± 0.098 kcal/mol | 1.83 ± 0.032 kcal/mol | 1.97 ± 0.045 kcal/mol
SAMPAENMTPEEAAELALAYVERFRAEVEALGGPIPADTEIVVPVTLEGPPVEIKITFINPDEVEVEVASAG [r14_501_TrMRF] | 1.34 ± 0.17 kcal/mol | 1.17 ± 0.09 kcal/mol | 1.46 ± 0.15 kcal/mol
SAMPIESVEFHPEEGVITLRFRAPAHPDAEKFEIEVVVDGAEAGEIEVEVDPETNEVRALVRVKIPKGASAG [r14_244_TrMRF] | 3.7 ± 0.25 kcal/mol | 4.23 ± 0.059 kcal/mol | 2.71 ± 0.1 kcal/mol
SAMPIPNKNVVIRAKRSPDGTWDLTITVDNEKLGSKKAKTEEELKALVEEIAKEIAEKLGPGNVTVVEESAG [r14_791_JUSTAS] | 2.69 ± 0.22 kcal/mol | 2.54 ± 0.15 kcal/mol | 2.74 ± 0.28 kcal/mol
SAMPIQIMVERDPDDGYIKVTIMFRSDSPEEAYELIETLFENLGVEVNIERYPEEGYFMIEVEIRLPPGSAG [r14_424_TrROS] | 3.89 ± 0.21 kcal/mol | 4.13 ± 0.33 kcal/mol | 3.45 ± 0.23 kcal/mol
SAMPLEDMTPEQAEEFAKEFINRFQQENQKKGGPIPPGQEIEIPVRYKGGPVYIKITVTNPGNINIEVESAG [r14_501_TrROS] | 0.663 ± 0.13 kcal/mol | 0.708 ± 0.095 kcal/mol | 0.448 ± 0.048 kcal/mol
SAMRMISFPIESPEELEDELEEKFGVEVETFPDGMRMIKFRRNNEPVIIMIPPNNGHITIIPPEDMDKMSAG [r14_402_TrROS] | 1.01 ± 0.15 kcal/mol | 1.28 ± 0.21 kcal/mol | 0.685 ± 0.19 kcal/mol

Sequence | folding stability dG unfold [1] | folding stability dG unfold [2] | folding stability dG unfold [3]
SAMSPEEIRARARALLEEKYPDKPYTLLSVEVDPSTGRVTVTWESPTPEKTTVTTPLTVTFGADGSLRESAG [r14_183_JUSTAS] | 2.02 ± 0.029 kcal/mol | 1.973 ± 0.017 kcal/mol | 2.028 ± 0.012 kcal/mol
SAMTITVTAPPGYTLNVTVTLAGGVPLTRTFSPSQSIDITIPEGTPFSLTVTTTAPGGEVATSTLTVPLSAG [r14_568_JUSTAS] | 3.19 ± 0.094 kcal/mol | 3.171 ± 0.018 kcal/mol | 3.19 ± 0.12 kcal/mol
SAMTIVLTLDEIAELLGLEKGESVEELRERIRELIRRLEEEGYRVTSITIEEVDGELVITVEIEPPPPESAG [r14_158_TrROS_Hall] | 4.89 ± 0.21 kcal/mol | 5.23 ± 0.21 kcal/mol | 3.38 ± 0.2 kcal/mol
SAMTKEEAKENGHIYIMVKIEVTWPNGGKREFPIFFPFPSLDEAKEQIRSFFRRMNFKVKIDDISIFPVSAG [r14_854_TrROS] | 3.53 ± 0.049 kcal/mol | 3.745 ± 0.027 kcal/mol | 2.98 ± 0.048 kcal/mol
SAMTLRIELTKEELEKLIKELKPGDEVELEIEVNGRTYRIRAKITRIERVDDKVYIEVELEIEELPEEESAG [r14_335_TrROS_Hall] | 4.63 ± 0.13 kcal/mol | 4.75 ± 0.064 kcal/mol | 4.46 ± 0.11 kcal/mol
SAMTLTLTVPPGAKVRVRITNENGETTEIEVEPGETVTITLPAGSTVRVEVEVVDPDGRKRTETFTLKPSAG [r14_568_TrROS_Hall] | 3.27 ± 0.15 kcal/mol | 3.22 ± 0.07 kcal/mol | 3.46 ± 0.11 kcal/mol
SAMTPEFFETIKEASREGDIAAVLEAAEAIKTEFPDTGLTVDVVIEPREDDRFVIEVRVDYPPNLEGLASAG [r14_690_TrMRF] | -0.0704 ± 0.18 kcal/mol | -0.212 ± 0.11 kcal/mol | -0.142 ± 0.039 kcal/mol
SAMTPETERKLLEAPKTGDVEAVREAAEEIEKEYPGKGLVVTVTVSPLSDGTWEVEVTVELPPNLPELASAG [r14_690_JUSTAS] | 0.437 ± 0.38 kcal/mol | 0.27 ± 0.097 kcal/mol | 0.702 ± 0.12 kcal/mol
SAMTVEIEFPPELEVEELVEKLKEAFPGEEIEVEAERDPVEPRLRIRVTVDDPELAEEVEKKLRELVEESAG [r14_443_TrMRF] | 3 ± 0.12 kcal/mol | 2.21 ± 0.1 kcal/mol | 3.34 ± 0.15 kcal/mol
SAMTVERLPDGSLRITIPDPNSDTTYTIEIRRLPDGSYEVTITTTKPDGSTTTTTRPMSEEEAIAEVLASAG [r14_179_JUSTAS] | 3.6 ± 0.055 kcal/mol | 3.54 ± 0.068 kcal/mol | 3.75 ± 0.061 kcal/mol
SAMTVVIPPNLTALTEDGRPIHPDQVVEVYEAEAFPELGRVVARVKVFDPVSGEETEERLVLFFPDGAESAG [r14_258_TrMRF] | 1.53 ± 0.036 kcal/mol | 1.66 ± 0.021 kcal/mol | 1.26 ± 0.033 kcal/mol
SAMTVYYKITAEVEKTIGDTPETLTVPLTLTVPPDKLNEEEIKKIAEEKAKELGYTLKKIEISKTPSLPSAG [r14_278_JUSTAS] | 2.11 ± 0.21 kcal/mol | 2.06 ± 0.17 kcal/mol | 2.22 ± 0.084 kcal/mol
SAMTYTLTPAGGKTITVTLNPDGSITITSTSTSSSLPLSPDAKITSVTFDAATGTITITLNSKPITIPASAG [r14_276_JUSTAS] | 1.92 ± 0.15 kcal/mol | 1.74 ± 0.17 kcal/mol | 1.9 ± 0.057 kcal/mol
SAMVIPAEVRLPGTPEEVLEKAREFADTLAARFRELGFEVVAVELEEIEPGEAVVRLRIVVARPDEEFPSAG [r14_973_TrMRF] | 2.85 ± 0.069 kcal/mol | 2.79 ± 0.03 kcal/mol | 2.75 ± 0.086 kcal/mol
SAMVITTSLEEARKRTGLSESASPEEVRAAVEALIAAETAAGVTLLAIELLEVGDTWTLRVEIERAGGVSAG [r14_158_JUSTAS] | 2.07 ± 0.077 kcal/mol | 1.72 ± 0.068 kcal/mol | 2.36 ± 0.057 kcal/mol
SAMVLDLTELLREKAAEIRKADPRPLTPEELRELAREAAEELAKETGKPITEIRVEETDEWPRITAVVLSAG [r14_147_JUSTAS] | 0.461 ± 0.24 kcal/mol | -0.358 ± 0.3 kcal/mol | 1.04 ± 0.044 kcal/mol
SAMVLRIKVEVNGETKEIEIELPPNAKIEKKDGELTIYVKNPETGKIFKFKFKKNAKIVEVEEVDPEDLSAG [r14_313_TrROS_Hall] | 3.83 ± 0.1 kcal/mol | 4.22 ± 0.052 kcal/mol | 2.6 ± 0.046 kcal/mol
